Measurements reported in IntAct's records for PubMed 31515488.

B1: Notch homolog 2 N-terminal-like protein A (Homo sapiens), Q7Z3S9 (parent)
chain: MCVTYHNGTGYCKCPEGFLGEYCQHRDPCEKNRCQNGGTCVAQAMLGKATCRCASGFTGEDCQYSTSHPCFVSRPCLNGGTCHMLSRDTYECTCQVGFTGKECQWTDACLSHPCANGSTCTTVANQFSCKCLTGFTGQKCETDVNECDIPGHCQHGGTCLNLPGSYQCQCLQGFTGQYCDSLYVPCAPSPCVNGGTCRQTGDFTFECNCLPETVRRGTELWERDREVWNGKEHDEN
partner: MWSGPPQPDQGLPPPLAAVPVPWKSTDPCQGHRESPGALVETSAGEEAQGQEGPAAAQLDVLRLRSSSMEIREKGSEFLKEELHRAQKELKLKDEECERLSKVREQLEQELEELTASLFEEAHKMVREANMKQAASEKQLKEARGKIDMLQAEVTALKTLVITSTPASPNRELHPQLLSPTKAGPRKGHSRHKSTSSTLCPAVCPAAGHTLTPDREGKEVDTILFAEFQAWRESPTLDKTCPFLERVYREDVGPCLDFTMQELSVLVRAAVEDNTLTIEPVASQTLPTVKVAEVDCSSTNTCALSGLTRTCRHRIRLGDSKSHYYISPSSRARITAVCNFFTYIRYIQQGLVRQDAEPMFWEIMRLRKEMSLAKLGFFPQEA
B2: F-box only protein 11 (Homo sapiens), Q86XK2 (parent)
chain: MNSVRAANRRPRRVSRPRPVQQQQQQPPQQPPPQPPQQQPPQQQPPPPPQQQQQQQPPPPPPPPPPLPQERNNVGERDDDVPADMVAEESGPGAQNSPYQLRRKTLLPKRTACPTKNSMEGASTSTTENFGHRAKRARVSGKSQDLSAAPAEQYLQEKLPDEVVLKIFSYLLEQDLCRAACVCKRFSELANDPILWKRLYMEVFEYTRPMMHPEPGKFYQINPEEYEHPNPWKESFQQLYKGAHVKPGFAEHFYSNPARYKGRENMLYYDTIEDALGGVQEAHFDGLIFVHSGIYTDEWIYIESPITMIGAAPGKVADKVIIENTRDSTFVFMEGSEDAYVGYMTIRFNPDDKSAQHHNAHHCLEITVNCSPIIDHCIIRSTCTVGSAVCVSGQGACPTIKHCNISDCENVGLYITDHAQGIYEDNEISNNALAGIWVKNHGNPIIRRNHIHHGRDVGVFTFDHGMGYFESCNIHRNRIAGFEVKAYANPTVVRCEIHHGQTGGIYVHEKGRGQFIENKIYANNFAGVWITSNSDPTIRGNSIFNGNQGGVYIFGDGRGLIEGNDIYGNALAGIQIRTNSCPIVRHNKIHDGQHGGIYVHEKGQGVIEENEVYSNTLAGVWVTTGSTPVLRRNRIHSGKQVGVYFYDNGHGVLEDNDIYNHMYSGVQIRTGSNPKIRRNKIWGGQNGGILVYNSGLGCIEDNEIFDNAMAGVWIKTDSNPTLRRNKIHDGRDGGICIFNGGRGLLEENDIFRNAQAGVLISTNSHPILRKNRIFDGFAAGIEITNHATATLEGNQIFNNRFGGLFLASGVNVTMKDNKIMNNQDAIEKAVSRGQCLYKISSYTSYPMHDFYRCHTCNTTDRNAICVNCIKKCHQGHDVEFIRHDRFFCDCGAGTLSNPCTLAGEPTHDTDTLYDSAPPIESNTLQHN
B3: Putative RNA-binding protein Luc7-like 2 (Homo sapiens), Q9Y383 (parent)
chain: MSAQAQMRAMLDQLMGTSRDGDTTRQRIKFSDDRVCKSHLLNCCPHDVLSGTRMDLGECLKVHDLALRADYEIASKEQDFFFELDAMDHLQSFIADCDRRTEVAKKRLAETQEEISAEVAAKAERVHELNEEIGKLLAKVEQLGAEGNVEESQKVMDEVEKARAKKREAEEVYRNSMPASSFQQQKLRVCEVCSAYLGLHDNDRRLADHFGGKLHLGFIEIREKLEELKRVVAEKQEKRNQERLKRREEREREEREKLRRSRSHSKNPKRSRSREHRRHRSRSMSRERKRRTRSKSREKRHRHRSRSSSRSRSRSHQRSRHSSRDRSRERSKRRSSKERFRDQDLASCDRDRSSRDRSPRDRDRKDKKRSYESANGRSEDRRSSEEREAGEI
B4: Protein DBF4 homolog B (Homo sapiens), Q8NFT6 (parent)
chain: MSEPGKGDDCLELESSMAESRLRAPDLGVSRCLGKCQKNSPGARKHPFSGKSFYLDLPAGKNLQFLTGAIQQLGGVIEGFLSKEVSYIVSSRREVKAESSGKSHRGCPSPSPSEVRVETSAMVDPKGSHPRPSRKPVDSVPLSRGKELLQKAIRNQGSISGGGSGGSSSLLTNARSWGVRILHVDEMMMHVQQLSLASLCVKKQQPKKPEGTCPAAESRTRKVARLKAPFLKIEDESRKFRPFHHQFKSFPEISFLGPKDASPFEAPTTLGSMHHTRESKDGEPSPRSAAHTMPRRKKGYCECCQEAFEELHVHLQSAQHRSFALEAHLYAEVDRIIAQLSHSFADIPFQAGLPRWSGSPASDCDPLCPETLHPHQPSHPRAASPRIRKEDSCQASVTQGRAAGQQRWTESLDGVMGPPASHTCVSATTLLPALPKGSREQGCLCPCPASFTQSHLVTSLALLPGEWSPAEDMPLHPSQENSFAPADIPVKGPLLFPEARPWLMSARCWVRPFPFVTWGCLIPHDTTPLHEEVSPCPCLRLGYLYLLLTQSLWCRVRVPSLSTAGPIPRTSHPCTLAFPSYLNDHDLGHLCQAKPQGWNTPQPFLHCGFLAVDSG
partner: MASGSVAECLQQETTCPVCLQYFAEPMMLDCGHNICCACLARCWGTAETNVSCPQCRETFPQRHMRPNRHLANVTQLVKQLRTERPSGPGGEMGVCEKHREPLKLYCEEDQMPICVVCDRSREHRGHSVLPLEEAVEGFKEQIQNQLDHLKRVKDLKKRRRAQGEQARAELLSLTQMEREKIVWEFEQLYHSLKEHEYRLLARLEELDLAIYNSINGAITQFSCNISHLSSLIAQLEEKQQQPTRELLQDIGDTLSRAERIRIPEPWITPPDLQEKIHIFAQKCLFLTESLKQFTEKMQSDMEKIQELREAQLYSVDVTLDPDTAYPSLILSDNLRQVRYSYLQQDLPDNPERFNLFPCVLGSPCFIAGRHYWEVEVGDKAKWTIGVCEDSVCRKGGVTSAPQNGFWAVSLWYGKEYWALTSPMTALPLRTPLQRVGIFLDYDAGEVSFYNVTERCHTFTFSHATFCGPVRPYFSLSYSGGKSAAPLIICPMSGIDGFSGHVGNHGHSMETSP
B5: Adiponectin (Homo sapiens), Q15848 (parent)
chain: MLLLGAVLLLLALPGHDQETTTQGPGVLLPLPKGACTGWMAGIPGHPGHNGAPGRDGRDGTPGEKGEKGDPGLIGPKGDIGETGVPGAEGPRGFPGIQGRKGEPGEGAYVYRSAFSVGLETYVTIPNMPIRFTKIFYNQQNHYDGSTGKFHCNIPGLYYFAYHITVYMKDVKVSLFKKDKAMLFTYDQYQENNVDQASGSVLLHLEVGDQVWLQVYGEGERNGLYADNDNDSTFTGFLLYHDTN
B6: RUN and FYVE domain-containing protein 1 (Homo sapiens), Q96T51-2 (parent)
chain: MMEERANLMHMMKLSIKVLLQSALSLGRSLDADHAPLQQFFVVMEHCLKHGLKVKKSFIGQNKSFFGPLELVEKLCPEASDIATSVRNLPELKTAVGRGRAWLYLALMQKKLADYLKVLIDNKHLLSEFYEPEALMMEEEGMVIVGLLVGLNVLDANLCLKGEDLDSQVGVIDFSLYLKDVQDLDGGKEHERITDVLDQKNYVEELNRHLSCTVGDLQTKIDGLEKTNSKLQEELSAATDRICSLQEEQQQLREQNELIRERSEKSVEITKQDTKVELETYKQTRQGLDEMYSDVWKQLKEEKKVRLELEKELELQIGMKTEMEIAMKLLEKDTHEKQDTLVALRQQLEEVKAINLQMFHKAQNAESSLQQKNEAITSFEGKTNQVMSSMKQMEERLQHSERARQGAEERSHKLQQELGGRIGALQLQLSQLHEQCSSLEKELKSEKEQRQALQRELQHEKDTSSLLRMELQQVEGLKKELRELQDEKAELQKICEEQEQALQEMGLHLSQSKLKMEDIKEVNQALKGHAWLKDDEATHCRQCEKEFSISRRKHHCRNCGHIFCNTCSSNELALPSYPKPVRVCDSCHTLLLQRCSSTAS
partner: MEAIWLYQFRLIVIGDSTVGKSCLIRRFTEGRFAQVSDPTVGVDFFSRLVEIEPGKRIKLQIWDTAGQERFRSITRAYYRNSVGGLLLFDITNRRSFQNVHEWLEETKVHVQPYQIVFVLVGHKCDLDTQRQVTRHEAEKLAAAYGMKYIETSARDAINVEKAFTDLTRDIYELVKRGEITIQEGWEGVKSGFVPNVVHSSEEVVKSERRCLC
B7: Nucleolar protein 12 (Homo sapiens), Q9UGY1 (parent)
chain: MGRNKKKKRDGDDRRPRLVLSFDEEKRREYLTGFHKRKVERKKAAIEEIKQRLKEEQRKLREERHQEYLKMLAEREEALEEADELDRLVTAKTESVQYDHPNHTVTVTTISDLDLSGARLLGLTPPEGGAGDRSEEEASSTEKPTKALPRKSRDPLLSQRISSLTASLHAHSRKKVKRKHPRRAQDSKKPPRAPRTSKAQRRRLTGKARHSGE
B8: Mediator of RNA polymerase II transcription subunit 18 (Homo sapiens), Q9BUE0 (parent)
chain: MEAPPVTMMPVTGGTINMMEYLLQGSVLDHSLESLIHRLRGLCDNMEPETFLDHEMVFLLKGQQASPFVLRARRSMDRAGAPWHLRYLGQPEMGDKNRHALVRNCVDIATSENLTDFLMEMGFRMDHEFVAKGHLFRKGIMKIMVYKIFRILVPGNTDSTEALSLSYLVELSVVAPAGQDMVSDDMKNFAEQLKPLVHLEKIDPKRLM
partner: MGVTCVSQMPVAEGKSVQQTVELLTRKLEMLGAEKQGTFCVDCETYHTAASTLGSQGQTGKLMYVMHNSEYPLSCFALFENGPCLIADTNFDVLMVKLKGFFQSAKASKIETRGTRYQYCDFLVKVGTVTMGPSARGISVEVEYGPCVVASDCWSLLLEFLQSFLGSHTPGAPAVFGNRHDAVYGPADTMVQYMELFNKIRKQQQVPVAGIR
B9: Coiled-coil domain-containing protein 33 (Homo sapiens), Q8N5R6-5 (parent)
chain: MGEPGPPSPPAPKAAPGLIDSFSEMNNYRRAMQKMAEDILSLRRQASILEGENRILRSRLAQQEEEEGQGKASEAQNTVSMKQKLLLSELDMKKLRDRVQHLQNELIRKNDREKELLLLYQAQQPQAALLKQYQGKLQKMKALEETVRHQEKVIEKMERVLEDRLQDRSKPPPLNRQQGKPYTGFPMLSASGLPLGSMGENLPVELYSVLLAENAKLRTELDKNRHQQAPIILQQQALPVDPGELGAGGDLTERLQETHGPGHSECTETLPAQDLLSGTSDKFNLLAKLEHAQSRILSLESQLEDSARRWGREKQDLATRLQEQEKGFRHPSNSIIIEQPVSDPPGVAPRGSGGGAGSHRTPKVTGP
partner: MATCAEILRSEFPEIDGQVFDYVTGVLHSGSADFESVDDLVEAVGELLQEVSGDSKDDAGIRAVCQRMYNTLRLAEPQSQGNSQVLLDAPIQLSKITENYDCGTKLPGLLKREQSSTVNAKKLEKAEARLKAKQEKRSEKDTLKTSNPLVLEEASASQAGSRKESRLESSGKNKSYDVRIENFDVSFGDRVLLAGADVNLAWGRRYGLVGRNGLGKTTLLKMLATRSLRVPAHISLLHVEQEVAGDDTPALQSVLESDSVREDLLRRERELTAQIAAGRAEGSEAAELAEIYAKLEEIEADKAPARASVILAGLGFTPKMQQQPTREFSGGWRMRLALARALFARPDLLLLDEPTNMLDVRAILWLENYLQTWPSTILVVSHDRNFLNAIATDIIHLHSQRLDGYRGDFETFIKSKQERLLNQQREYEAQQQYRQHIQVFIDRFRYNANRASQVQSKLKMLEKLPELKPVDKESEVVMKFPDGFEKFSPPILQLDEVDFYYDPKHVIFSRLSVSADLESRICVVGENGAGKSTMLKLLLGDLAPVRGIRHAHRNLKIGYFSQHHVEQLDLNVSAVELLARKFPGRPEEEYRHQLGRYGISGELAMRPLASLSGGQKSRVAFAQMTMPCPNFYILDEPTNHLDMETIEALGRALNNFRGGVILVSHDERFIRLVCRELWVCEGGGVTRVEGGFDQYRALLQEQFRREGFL

Variants of: B1
Conditions: with RAB3IL1, Q8TBN0

effect of a mutation on the interaction | Variant
with no effect | A115T

Variants of: B2
Conditions: with skp1_human SKP1, P63208
Chain of skp1_human SKP1, P63208 (P63208 whole entry): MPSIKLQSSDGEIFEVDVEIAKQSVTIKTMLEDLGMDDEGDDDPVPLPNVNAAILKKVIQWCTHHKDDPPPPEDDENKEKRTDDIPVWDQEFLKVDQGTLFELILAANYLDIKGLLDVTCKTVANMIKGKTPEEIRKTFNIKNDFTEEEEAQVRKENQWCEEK

effect of a mutation on the interaction | Variant
with no effect | I306V
with no effect | Y226C

Variants of: B3
Conditions: with nfya_human NFYA

effect of a mutation on the interaction | Variant
with no effect | K368Q

Variants of: B3
Conditions: with srsf6_human SRSF6, Q13247
Chain of srsf6_human SRSF6, Q13247 (Q13247 whole entry, looked up): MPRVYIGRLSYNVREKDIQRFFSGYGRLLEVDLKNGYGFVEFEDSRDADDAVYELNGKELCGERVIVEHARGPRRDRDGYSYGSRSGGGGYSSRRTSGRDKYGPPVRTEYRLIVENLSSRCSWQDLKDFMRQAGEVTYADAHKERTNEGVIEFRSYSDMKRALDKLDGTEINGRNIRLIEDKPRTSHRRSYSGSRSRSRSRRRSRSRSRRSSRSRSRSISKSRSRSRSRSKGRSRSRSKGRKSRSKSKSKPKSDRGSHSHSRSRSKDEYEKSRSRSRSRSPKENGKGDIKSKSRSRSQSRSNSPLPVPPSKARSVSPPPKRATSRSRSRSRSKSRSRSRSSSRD

effect of a mutation on the interaction | Variant
with no effect | K368Q

Variants of: B4
Conditions: with tri27_human TRIM27, P14373

effect of a mutation on the interaction | Variant
with no effect | L199S

Variants of: B5
Conditions: with sgta_human SGTA

effect of a mutation on the interaction | Variant
with no effect | Y111H

Variants of: B6
Conditions: with rb39b_human RAB39B

effect of a mutation on the interaction | Variant
with no effect | C159F

Variants of: B7
Conditions: with cep70_human CEP70, Q8NHQ1
Chain of cep70_human CEP70, Q8NHQ1 (Q8NHQ1 whole entry): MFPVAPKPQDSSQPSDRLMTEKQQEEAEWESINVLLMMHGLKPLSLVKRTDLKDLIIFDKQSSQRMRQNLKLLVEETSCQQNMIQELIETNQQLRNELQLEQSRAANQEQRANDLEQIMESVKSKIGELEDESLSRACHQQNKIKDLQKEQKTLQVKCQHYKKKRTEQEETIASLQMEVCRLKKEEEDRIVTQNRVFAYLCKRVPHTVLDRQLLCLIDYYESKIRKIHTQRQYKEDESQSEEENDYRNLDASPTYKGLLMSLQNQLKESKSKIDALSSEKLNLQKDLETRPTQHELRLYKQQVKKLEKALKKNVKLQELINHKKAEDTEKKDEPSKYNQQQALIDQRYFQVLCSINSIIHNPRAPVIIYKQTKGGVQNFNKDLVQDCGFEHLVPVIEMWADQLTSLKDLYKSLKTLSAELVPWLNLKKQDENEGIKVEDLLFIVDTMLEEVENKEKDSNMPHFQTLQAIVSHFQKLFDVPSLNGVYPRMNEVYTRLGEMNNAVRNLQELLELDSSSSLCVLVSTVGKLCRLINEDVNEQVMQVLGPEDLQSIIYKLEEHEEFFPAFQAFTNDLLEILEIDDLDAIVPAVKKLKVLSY

effect of a mutation on the interaction | Variant
with no effect | Y98H

Variants of: B8
Conditions: with med20_human MED20, Q9H944

effect of a mutation on the interaction | Variant
with no effect | M19V

Variants of: B9
Conditions: with abcf3_human ABCF3, Q9NUQ8

effect of a mutation on the interaction | Variant
with no effect | M25V
with no effect | P203L
